Experimental data published in publication PMC4441150, “Synergistic function of four novel thermostable glycoside hydrolases from a long-term enriched thermophilic methanogenic digester” (Frontiers in Microbiology, 2015).

Experiments:
Experiment in all cases: purified protein
purified protein [1] = substrate: O=[N+]([O-])c1ccc(O[C@@H]2OC[C@@H](O)[C@H](O)[C@H]2O)cc1; format: biochemical, bacterium enrichment culture; settings: 1-50 mM substrate
purified protein [2] = substrate: O=[N+]([O-])c1ccc(O[C@@H]2O[C@@H](CO)[C@H](O)[C@H]2O)cc1; format: biochemical, bacterium enrichment culture; settings: optimal conditions of the enzyme (optimum pH 4.5, 60°C), 1-50 mM substrate
purified protein [3] = substrate: O=[N+]([O-])c1ccc(O[C@@H]2O[C@H](CO)[C@@H](O)[C@H](O)[C@H]2O)cc1; settings: 1-50 mM substrate
purified protein [4] = substrate: O=[N+]([O-])c1ccc(O[C@@H]2O[C@H](CO)[C@@H](O[C@@H]3O[C@H](CO)[C@@H](O)[C@H](O)[C@H]3O)[C@H](O)[C@H]2O)cc1; format: biochemical, bacterium enrichment culture; settings: optimal conditions of the enzyme (optimum pH 6.0, 65°C), 1-50 mM substrate
[5] = optimal conditions of the enzyme (optimum pH 4.5, 60°C)
[6] = optimal conditions of the enzyme (optimum pH 4.5, 60°C), pH 4.5, 60.0 °C
[7] = optimal conditions of the enzyme (optimum pH 6.0, 65°C)
[8] = optimal conditions of the enzyme (optimum pH 6.0, 65°C), pH 6.0, 65.0 °C

B1: Xyl522 (bacterium enrichment culture) (protein)
chain: MVYKMLFQRSDLPMEERIKDLISRLTLEEKVSQLLYDSAAIPHLGIPEYNWWNECLHGVARAGTATVFPQAIGMAASFNAPLLQQVAEVIATEARAKHHEAARHGDRGIYKGLTFWTPNINIFRDPRWGRGQETYGEDPYLTAQLGIAFVKGLQGDHPKYLKAAACAKHFAVHSGPESLRHSFDARCSQKDLYETYLPAFRALVTEAKVESVMGAYNRTNGEPCCASPTLLQKILREDWGFEGHVVSDCGAIHDIHAHHKVTGSPEESAALAVKNGCDLNCGRVYPALVEAVAQGLISEEEIDRALARLLRTKFKLGLFDPEEEVPYAQIPYEVVACDEHRSLAREMARQSMVLLKNENNLLPLSKELKTVAVIGPNADSRKVLLGNYFGTSSQLVTALEGIRRKLEPNCRVLYAEGCDLTTTRPGYWGNSPREGFAEALAVAERADAVIMCMGVSPDLEGEEGAAANSDGGGDRLTLELPGMQNELIKEVAALGKPLVLVLFSGSPLAVTWAQENVPAIIQAWYPGEEGGNALADIIFGDYNPAGRLPITFVKSLDQLPPFTDYSMEGRTYRYLKEEPLYPFGYGLSYTSFTYSNLQAPAELNIGEELVVQVDVENTGARAGDEVVQLYIRHRDASAAVPHHSLQGFARIRLEPGEKRTVTFRLAPRQLAVFDEEGRCLVEPGAVELLAGGSQPDARSEELTGQKPLLGQVLLVGETLELPR
notes: no signal peptide; pET-28a(+) in E. coli BL21 (DE3), Ni-NTA purified
Protein B1 has a Km (purified protein [1]; [5]) of 8.8 mM, a kcat (purified protein [1]; [5]) of 14.3 s⁻¹ and a kcat/Km (purified protein [1]; [5]) of 1600 M⁻¹ s⁻¹. The Km (purified protein [2]) was 10.0 mM, the kcat (purified protein [2]) was 3.2 s⁻¹ and the kcat/Km (purified protein [2]) was 320 M⁻¹ s⁻¹. For the same protein, the Km (purified protein [3]; [6]) was 15.7 mM, the kcat (purified protein [3]; [6]) was 1.4 s⁻¹ and the kcat/Km (purified protein [3]; [6]) was 89.2 M⁻¹ s⁻¹.

B2: Bgl8520 (bacterium enrichment culture) (protein)
chain: MNKHNKGGLLMKFPENFVWGAAAASYQIEGAAYEDGKGLSVWDIFTRQKGAIENGDNGDIACNHYHRYKEDVQLMKELGLQAYRLSLSWPRILANGTGKVNQKGLDFYDKLIDELLENGIEPYITLFHWDYPYELYKKGGWLNPDSPDWFAEYTEVVVQKLSDRVKNWITINEPQVFVNLGHKDGVHAPGLKLGMEDLLQISHNVLLAHGKGARVIRETSVQDCRIGLAPSDSPVFPATKSEENIQAARRASFSVEDKGLWAINWWMDPVILGRYPEEGLKIFEEYLPEIKTDDFKIISEPIDFFGVNIYQGVCVKLDDKGQAVPAERKVGYARNAYYWPITPEALYWGPRFYYERYKKPVIITENGMSNVDWVAVDGKVHDPQRIDFTNRYLRELQKAGEDGVDIQGYFHWSLMDNFEWAQGYLERFGLIYVDFETGERIIKDSAYWYKKVIETKGEALYA
notes: as for B1
B2 was tested, and the Km (purified protein [1]; [7]) was 0.7 mM, the kcat (purified protein [1]; [7]) was 0.3 s⁻¹ and the kcat/Km (purified protein [1]; [7]) was 430 M⁻¹ s⁻¹. The Km (purified protein [4]) was 2.7 mM, the kcat (purified protein [4]) was 8.2 s⁻¹ and the kcat/Km (purified protein [4]) was 3000 M⁻¹ s⁻¹. It also gave a Km (purified protein [3]; [8]) of 0.9 mM, a kcat (purified protein [3]; [8]) of 124 s⁻¹ and a kcat/Km (purified protein [3]; [8]) of 140000 M⁻¹ s⁻¹.
